Assay results reported in patent US20050118674A1, “Engineering of Controlled Deamidation Rates in Peptides, Proteins, and Similar Structures” (priority 2003, published 2005).

test: First-order nonenzymatic deamidation of pentapeptides in Tris buffer; assay type: physicochemical; details: pH 7.4, 37.0° C., 0.15 M Tris HCl; Asn pentapeptides
Method in brief: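 First-order deamidation rates determined for XxxAsnYyy and XxxGlnYyy pentapeptides in 0.15 M Tris buffer, pH 7.4, 37° C. Not all values were measured directly: several Asn rates were estimated and most Gln rates came from surface fitting.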

Substance	First-Order Deamidation Halftimes of GlyXxxAsnYyyGly [days]
GlyGlyAsnAlaGly (GGNAG; printed: GlyGlyAsnAlaGly)	21.1
GlyGlyAsnAmCysGly	27.6
GlyGlyAsnArgGly (GGNRG; printed: GlyGlyAsnArgGly)	57.8
GlyGlyAsnAspGly (GGNDG; printed: GlyGlyAsnAspGly)	28.0
GlyGlyAsnCysGly (GGNCG; printed: GlyGlyAsnCysGly)	40.6
GlyGlyAsnGluGly (GGNEG; printed: GlyGlyAsnGluGly)	73.9
GlyGlyAsnGlyGly (GGNGG; printed: GlyGlyAsnGlyGly)	1.03
GlyGlyAsnHisGly (GGNHG; printed: GlyGlyAsnHisGly)	9.2
GlyGlyAsnIleGly (GGNIG; printed: GlyGlyAsnIleGly)	287
GlyGlyAsnLeuGly (GGNLG; printed: GlyGlyAsnLeuGly)	104
GlyGlyAsnLysGly (GGNKG; printed: GlyGlyAsnLysGly)	48.2
GlyGlyAsnMetGly (GGNMG; printed: GlyGlyAsnMetGly)	50.4
GlyGlyAsnPheGly (GGNFG; printed: GlyGlyAsnPheGly)	64.0
GlyGlyAsnProGly (GGNPG; printed: GlyGlyAsnProGly)	7170
GlyGlyAsnSerGly (GGNSG; printed: GlyGlyAsnSerGly)	11.8
GlyGlyAsnThrGly (GGNTG; printed: GlyGlyAsnThrGly)	39.8
GlyGlyAsnTrpGly (GGNWG; printed: GlyGlyAsnTrpGly)	77.1
GlyGlyAsnTyrGly (GGNYG; printed: GlyGlyAsnTyrGly)	63.6
GlyGlyAsnValGly (GGNVG; printed: GlyGlyAsnValGly)	224
GlyHisAsnAlaGly (GHNAG; printed: GlyHisAsnAlaGly)	24.6
GlyHisAsnAmCysGly	33.8

Substance	First-Order Deamidation Halftimes of GlyXxxAsnYyyGly [days]
GlyHisAsnArgGly (GHNRG; printed: GlyHisAsnArgGly)	48.9
GlyHisAsnAspGly (GHNDG; printed: GlyHisAsnAspGly)	31.2
GlyHisAsnCysGly (GHNCG; printed: GlyHisAsnCysGly)	43.9
GlyHisAsnGluGly (GHNEG; printed: GlyHisAsnGluGly)	69.4
GlyHisAsnGlyGly (GHNGG; printed: GlyHisAsnGlyGly)	1.14
GlyHisAsnHisGly (GHNHG; printed: GlyHisAsnHisGly)	10.7
GlyHisAsnIleGly (GHNIG; printed: GlyHisAsnIleGly)	327
GlyHisAsnLeuGly (GHNLG; printed: GlyHisAsnLeuGly)	116
GlyHisAsnLysGly (GHNKG; printed: GlyHisAsnLysGly)	50.2
GlyHisAsnMetGly (GHNMG; printed: GlyHisAsnMetGly)	63.1
GlyHisAsnPheGly (GHNFG; printed: GlyHisAsnPheGly)	72.1
GlyHisAsnProGly (GHNPG; printed: GlyHisAsnProGly)	8440
GlyHisAsnSerGly (GHNSG; printed: GlyHisAsnSerGly)	15.7
GlyHisAsnThrGly (GHNTG; printed: GlyHisAsnThrGly)	47.2
GlyHisAsnTrpGly (GHNWG; printed: GlyHisAsnTrpGly)	95.4
GlyHisAsnTyrGly (GHNYG; printed: GlyHisAsnTyrGly)	82.3
GlyHisAsnValGly (GHNVG; printed: GlyHisAsnValGly)	247
GlyIleAsnAlaGly (GINAG; printed: GlyIleAsnAlaGly)	25.9
GlyIleAsnAmCysGly	33.0
GlyIleAsnArgGly (GINRG; printed: GlyIleAsnArgGly)	66.4

same assay, conditions: pH 7.4, 37.0 ° C., 0.15 M Tris HCl; Gln pentapeptides; 52 values measured, rest derived from surface fitting

Substance	First-Order Deamidation Halftimes of GlyXxxGlnYyyGly [days]
GlyGluGlnThrGly (GEQTG; printed: GlyGluGlnThrGly)	5400
GlyGluGlnTrpGly (GEQWG; printed: GlyGluGlnTrpGly)	17000
GlyGluGlnTyrGly (GEQYG; printed: GlyGluGlnTyrGly)	13000
GlyGluGlnValGly (GEQVG; printed: GlyGluGlnValGly)	6400
GlyGlyGlnAlaGly (GGQAG; printed: GlyGlyGlnAlaGly)	5900
GlyGlyGlnArgGly (GGQRG; printed: GlyGlyGlnArgGly)	7200
GlyGlyGlnAspGly (GGQDG; printed: GlyGlyGlnAspGly)	7600
GlyGlyGlnCysGly (GGQCG; printed: GlyGlyGlnCysGly)	1900
GlyGlyGlnGluGly (GGQEG; printed: GlyGlyGlnGluGly)	7300
GlyGlyGlnGlyGly (GGQGG; printed: GlyGlyGlnGlyGly)	650
GlyGlyGlnHisGly (GGQHG; printed: GlyGlyGlnHisGly)	5900
GlyGlyGlnIleGly (GGQIG; printed: GlyGlyGlnIleGly)	6300
GlyGlyGlnLeuGly (GGQLG; printed: GlyGlyGlnLeuGly)	6200
GlyGlyGlnLysGly (GGQKG; printed: GlyGlyGlnLysGly)	6000
GlyGlyGlnMetGly (GGQMG; printed: GlyGlyGlnMetGly)	4500
GlyGlyGlnPheGly (GGQFG; printed: GlyGlyGlnPheGly)	7600
GlyGlyGlnProGly (GGQPG; printed: GlyGlyGlnProGly)	10000
GlyGlyGlnSerGly (GGQSG; printed: GlyGlyGlnSerGly)	5700
GlyGlyGlnThrGly (GGQTG; printed: GlyGlyGlnThrGly)	5200
GlyGlyGlnTrpGly (GGQWG; printed: GlyGlyGlnTrpGly)	15000

Substance	First-Order Deamidation Halftimes of GlyXxxGlnYyyGly [days]
GlyGlyGlnTyrGly (GGQYG; printed: GlyGlyGlnTyrGly)	12000
GlyGlyGlnValGly (GGQVG; printed: GlyGlyGlnValGly)	6500
GlyHisGlnAlaGly (GHQAG; printed: GlyHisGlnAlaGly)	7200
GlyHisGlnArgGly (GHQRG; printed: GlyHisGlnArgGly)	4500
GlyHisGlnAspGly (GHQDG; printed: GlyHisGlnAspGly)	5600
GlyHisGlnCysGly (GHQCG; printed: GlyHisGlnCysGly)	2200
GlyHisGlnGluGly (GHQEG; printed: GlyHisGlnGluGly)	5800
GlyHisGlnGlyGly (GHQGG; printed: GlyHisGlnGlyGly)	850
GlyHisGlnHisGly (GHQHG; printed: GlyHisGlnHisGly)	7200
GlyHisGlnIleGly (GHQIG; printed: GlyHisGlnIleGly)	6700
GlyHisGlnLeuGly (GHQLG; printed: GlyHisGlnLeuGly)	6600
GlyHisGlnLysGly (GHQKG; printed: GlyHisGlnLysGly)	4000
GlyHisGlnMetGly (GHQMG; printed: GlyHisGlnMetGly)	5200
GlyHisGlnPheGly (GHQFG; printed: GlyHisGlnPheGly)	8600
GlyHisGlnProGly (GHQPG; printed: GlyHisGlnProGly)	11000
GlyHisGlnSerGly (GHQSG; printed: GlyHisGlnSerGly)	6300
GlyHisGlnThrGly (GHQTG; printed: GlyHisGlnThrGly)	5500
GlyHisGlnTrpGly (GHQWG; printed: GlyHisGlnTrpGly)	18000
GlyHisGlnTyrGly (GHQYG; printed: GlyHisGlnTyrGly)	14000
GlyHisGlnValGly (GHQVG; printed: GlyHisGlnValGly)	6800
